# Measured values as given in the supplement of paper PMC9112550, “Optimization of the antimicrobial peptide Bac7 by deep mutational scanning” (BMC Biology, 2022).
# System: Escherichia coli TOP10
# Test: shrunken log2 fold change of peptide-encoding DNA abundance (4.5 h post-induction vs induction); higher = less antimicrobial activity (less host growth inhibition)
# Settings: time post-induction: 4.5 h; library: site-saturation at positions 5, 18, 19, 20
# 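Note: peptides expressed intracellularly from a pBAD plasmid library in pooled LB shake-flask culture, induced with 0.3% L-arabinose, DNA abundance read by NGS, three biological replicates, DESeq2 with apeglm shrinkage.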
row,Sequence,shrunken log2 fold change
1,RRIRRRPPRLPRPRPRPVDYPRP,-0.0118
2,RRIRKRPPRLPRPRPRPGGMPRP,0.633
3,RRIRARPPRLPRPRPRPRELPRP,0.496
4,RRIRFRPPRLPRPRPRPTMWPRP,0.0084
5,RRIRLRPPRLPRPRPRPPNEPRP,-0.0407
6,RRIRWRPPRLPRPRPRPQLQPRP,0.229
7,RRIRDRPPRLPRPRPRPHTNPRP,-0.367
8,RRIRHRPPRLPRPRPRPKGGPRP,0.0418
9,RRIRHRPPRLPRPRPRPLDYPRP,-0.0824
10,RRIRFRPPRLPRPRPRPTMFPRP,-0.322
11,RRIRQRPPRLPRPRPRPHLDPRP,-0.0359
12,RRIRGRPPRLPRPRPRPAAPPRP,1.38
13,RRIRARPPRLPRPRPRPVWRPRP,0.873
14,RRIRTRPPRLPRPRPRPACQPRP,0.0771
15,RRIRCRPPRLPRPRPRPKVKPRP,-0.133
16,RRIRKRPPRLPRPRPRPNCRPRP,0.00408
17,RRIRWRPPRLPRPRPRPGLHPRP,0.237
18,RRIRKRPPRLPRPRPRPKMWPRP,0.363
19,RRIRHRPPRLPRPRPRPWMPPRP,0.0474
20,RRIRDRPPRLPRPRPRPKGSPRP,-0.145
21,RRIRCRPPRLPRPRPRPTIAPRP,-0.211
22,RRIRKRPPRLPRPRPRPEFRPRP,0.129
23,RRIRCRPPRLPRPRPRPAPAPRP,0.84
24,RRIRWRPPRLPRPRPRPQGRPRP,0.64
25,RRIRHRPPRLPRPRPRPSTHPRP,-0.564

row,Sequence,shrunken log2 fold change
1,RRIRLRPPRLPRPRPRPMWFPRP,0.106
2,RRIRFRPPRLPRPRPRPKPVPRP,0.727
3,RRIRERPPRLPRPRPRPSMSPRP,-0.0748
4,RRIRYRPPRLPRPRPRPIIPPRP,-0.825
5,RRIRQRPPRLPRPRPRPSKLPRP,-0.401
6,RRIRSRPPRLPRPRPRPMMNPRP,-0.0187
7,RRIRLRPPRLPRPRPRPMHRPRP,-0.274
8,RRIRVRPPRLPRPRPRPERFPRP,-0.023
9,RRIRCRPPRLPRPRPRPTKCPRP,-0.0551
10,RRIRNRPPRLPRPRPRPKVNPRP,0.0323
11,RRIRHRPPRLPRPRPRPVWPPRP,0.217
12,RRIRVRPPRLPRPRPRPNLKPRP,-0.0252
13,RRIRHRPPRLPRPRPRPHQDPRP,-0.249
14,RRIRQRPPRLPRPRPRPAGAPRP,0.666
15,RRIRIRPPRLPRPRPRPQKEPRP,-0.0177
16,RRIRIRPPRLPRPRPRPALIPRP,-0.0428
17,RRIRHRPPRLPRPRPRPIQAPRP,-0.0107
18,RRIRTRPPRLPRPRPRPRCSPRP,-0.262
19,RRIRCRPPRLPRPRPRPVGYPRP,0.0595
20,RRIRLRPPRLPRPRPRPQDGPRP,-0.0806
21,RRIRDRPPRLPRPRPRPINRPRP,-0.104
22,RRIRYRPPRLPRPRPRPYIIPRP,-0.241
23,RRIRDRPPRLPRPRPRPFNIPRP,0.0125
24,RRIRGRPPRLPRPRPRPPNYPRP,0.299
25,RRIRCRPPRLPRPRPRPCPWPRP,-0.0714

row,Sequence,shrunken log2 fold change
1,RRIRMRPPRLPRPRPRPHHRPRP,-0.0556
2,RRIRMRPPRLPRPRPRPVNYPRP,-0.0244
3,RRIRNRPPRLPRPRPRPYFKPRP,-0.363
4,RRIRNRPPRLPRPRPRPTGWPRP,0.355
5,RRIRQRPPRLPRPRPRPIISPRP,-0.189
6,RRIRARPPRLPRPRPRPCMIPRP,-0.261
7,RRIRNRPPRLPRPRPRPHWHPRP,-0.65
8,RRIRWRPPRLPRPRPRPDTNPRP,-0.144
9,RRIRPRPPRLPRPRPRPDGIPRP,0.0121
10,RRIRFRPPRLPRPRPRPWYPPRP,-0.321
11,RRIRRRPPRLPRPRPRPEPMPRP,0.882
12,RRIRHRPPRLPRPRPRPVNSPRP,0.158
13,RRIRWRPPRLPRPRPRPLMGPRP,-0.276
14,RRIRYRPPRLPRPRPRPDPLPRP,-0.0227
15,RRIRIRPPRLPRPRPRPVFCPRP,-0.321
16,RRIRARPPRLPRPRPRPWYHPRP,-0.0138
17,RRIRPRPPRLPRPRPRPSGGPRP,0.191
18,RRIRTRPPRLPRPRPRPCDYPRP,-0.0715
19,RRIRFRPPRLPRPRPRPAAGPRP,0.333
20,RRIRKRPPRLPRPRPRPGDDPRP,0.758
21,RRIRSRPPRLPRPRPRPQYCPRP,-0.0172
22,RRIRFRPPRLPRPRPRPDHSPRP,-0.0664
23,RRIRWRPPRLPRPRPRPWINPRP,-0.506
24,RRIRHRPPRLPRPRPRPGTSPRP,-0.0565
25,RRIRPRPPRLPRPRPRPHASPRP,-0.192
